B1: CK1-14 (antibody, V domains shown)
VH: AVTLDESGGGLQTPGGALSLVCKASGFTFTRYAIQWVRQAPGKGLEWVGVINSGGRTLYAPAVKGRATISRDNGQSTVRLQLNNLRAEDTAIYYCVRGGYAYGIETWGHGTEVIVSS
VL: ALTQPSSVSANPGETVKITCSGSRYDYGWYQQKSPGSAPVTLIYYNNKRPSDIPSRFSGSKSGSTHTLTITGVQADDEAVYFCGSTDTSNDIFGAGTTLTVLG
B2: CK1-10 (antibody, V domains shown)
VH: AVTLDESGGGLQTPGRALSLVCKASGFTFSDYGMGWMRQAPGKGLEWVGAISNRGSHTYYGAAVKGRATISRDNGQSTVRLQLNNLRAEDTGTYYCAKDAGTCISSYGFSCVSAASIDAWGHGTEVIVSS
VL: ALTQPSSVSANLGGTVKITCSGGSGSYGGSYYYGWYQQKAPGSAPVTLIYDNTNRPSNIPSRFSGSKSGSTATLTITGVQADDEAVYFCGSIDSISDADIFGAGTTLTVLG
B3: PK1-16 (antibody, V domains shown)
VH: AVTLDESGGGLQTPGGGLSLVCKASGFTFRSYAMYWVRQAPGKGLEWLAGISSSGRYTGYAPAVKGRATISRDNGQSTVRLQLSNLRAEDAGTYYCAKDVYDSWTYANRIDAWGHGTEVIVSS
VL: ALTQPSSVSANPGETVKITCSGGGRRGYYGWYQQKSPGSAPVTVIYNNDERPSNIPSRFSGFKSGSTATLTITGVQAEDEAVYYCGSGDTTTDSGIFGAGTTLTVLG

target: human PAD2 protein (UniProt Q9Y2J8 1-665); experiment: SPR
Sequence (Q9Y2J8 whole entry): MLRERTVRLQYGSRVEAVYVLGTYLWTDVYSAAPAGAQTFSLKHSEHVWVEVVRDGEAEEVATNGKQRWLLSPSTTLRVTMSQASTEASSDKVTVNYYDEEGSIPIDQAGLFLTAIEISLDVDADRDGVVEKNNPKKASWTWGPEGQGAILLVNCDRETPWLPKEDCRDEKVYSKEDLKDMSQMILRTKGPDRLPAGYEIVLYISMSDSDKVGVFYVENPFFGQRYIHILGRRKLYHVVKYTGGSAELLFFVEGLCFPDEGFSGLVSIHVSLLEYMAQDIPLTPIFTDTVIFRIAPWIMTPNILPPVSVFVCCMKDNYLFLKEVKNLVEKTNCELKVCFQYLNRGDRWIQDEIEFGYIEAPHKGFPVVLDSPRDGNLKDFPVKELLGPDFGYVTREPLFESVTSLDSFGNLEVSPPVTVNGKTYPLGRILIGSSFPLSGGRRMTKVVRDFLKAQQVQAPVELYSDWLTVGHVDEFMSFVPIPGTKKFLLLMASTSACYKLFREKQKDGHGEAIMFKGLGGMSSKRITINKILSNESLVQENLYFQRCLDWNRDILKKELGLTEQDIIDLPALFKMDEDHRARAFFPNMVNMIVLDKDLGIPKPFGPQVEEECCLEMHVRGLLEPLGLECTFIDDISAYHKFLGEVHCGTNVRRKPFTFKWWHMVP

Point of comparison: B3, Kd 1.68 nM. Against it:
- B1 — within 1.5-fold, 1.37 nM
- B2 — 1.9-fold lower, 0.9 nM

— US20250236683A1 (published 2025)
